US20260116937A1

Assays:
C3b (human) [1] = molecular target: C3b (human) (UniProt P01024); assay: ELISA
C3b (human) [2] = molecular target: C3b (human) (UniProt P01024); assay: ELISA; culture supernatant

Sequence of C3b (human) (P01024 749-1663, chain 1 of 2): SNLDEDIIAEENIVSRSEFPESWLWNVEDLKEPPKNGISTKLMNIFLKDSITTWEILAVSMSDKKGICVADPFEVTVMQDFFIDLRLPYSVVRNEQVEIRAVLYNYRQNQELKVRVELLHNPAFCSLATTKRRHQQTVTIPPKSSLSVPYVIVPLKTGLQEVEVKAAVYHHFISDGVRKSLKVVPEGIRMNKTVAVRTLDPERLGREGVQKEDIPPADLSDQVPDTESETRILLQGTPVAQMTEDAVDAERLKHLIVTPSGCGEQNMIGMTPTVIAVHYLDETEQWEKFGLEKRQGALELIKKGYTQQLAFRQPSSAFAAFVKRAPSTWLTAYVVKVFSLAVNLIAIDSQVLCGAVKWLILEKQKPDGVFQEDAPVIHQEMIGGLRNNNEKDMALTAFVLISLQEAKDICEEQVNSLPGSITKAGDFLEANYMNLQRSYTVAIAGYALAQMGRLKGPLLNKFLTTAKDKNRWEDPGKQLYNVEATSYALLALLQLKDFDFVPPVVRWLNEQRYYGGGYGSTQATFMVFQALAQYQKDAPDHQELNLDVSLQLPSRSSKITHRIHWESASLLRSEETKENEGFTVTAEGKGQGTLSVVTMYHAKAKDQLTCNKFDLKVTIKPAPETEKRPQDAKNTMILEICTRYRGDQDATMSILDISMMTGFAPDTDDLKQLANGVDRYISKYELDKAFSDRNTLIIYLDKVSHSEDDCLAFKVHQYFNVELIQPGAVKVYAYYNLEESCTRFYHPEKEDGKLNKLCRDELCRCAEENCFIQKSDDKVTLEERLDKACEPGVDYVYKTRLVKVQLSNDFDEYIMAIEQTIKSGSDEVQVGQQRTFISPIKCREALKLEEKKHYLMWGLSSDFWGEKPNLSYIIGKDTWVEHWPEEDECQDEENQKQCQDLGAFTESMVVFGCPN
Sequence of C3b (human) (P01024 23-667, chain 2 of 2): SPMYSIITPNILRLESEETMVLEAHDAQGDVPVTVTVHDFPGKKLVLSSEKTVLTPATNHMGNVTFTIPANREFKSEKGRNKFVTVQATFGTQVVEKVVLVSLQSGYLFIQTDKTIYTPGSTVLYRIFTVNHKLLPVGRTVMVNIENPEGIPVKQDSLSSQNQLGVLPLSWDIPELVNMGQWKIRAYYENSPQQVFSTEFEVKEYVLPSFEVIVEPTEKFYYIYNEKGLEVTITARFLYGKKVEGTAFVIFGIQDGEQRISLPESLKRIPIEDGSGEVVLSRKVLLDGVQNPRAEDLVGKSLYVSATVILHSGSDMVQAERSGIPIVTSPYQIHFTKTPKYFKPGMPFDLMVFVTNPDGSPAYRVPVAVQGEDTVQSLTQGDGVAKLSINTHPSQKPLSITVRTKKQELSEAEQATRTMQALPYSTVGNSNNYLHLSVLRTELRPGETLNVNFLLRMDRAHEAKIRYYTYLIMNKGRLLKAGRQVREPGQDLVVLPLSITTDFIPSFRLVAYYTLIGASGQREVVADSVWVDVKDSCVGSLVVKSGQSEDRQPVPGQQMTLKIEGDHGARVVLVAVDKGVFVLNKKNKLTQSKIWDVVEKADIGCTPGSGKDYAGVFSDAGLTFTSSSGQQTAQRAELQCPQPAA

Q: How did the EC50 (C3b (human) [1]) turn out when “Factor H-like protein 1 (FHL-1) (from UniProt P08603 19-445)” was run?
A: 7.1 nM

Q: And the EC50 (C3b (human) [2])?
A: 6.9 nM
